# How the values were obtained:
# [1] = target: T1, HLA-A*02:01 on T2 cells without added peptide (human); assay: flow cytometry; T2 cells without peptide, stained with Foxp3-#32 bispecific mAb
# T1 construct: Also serves as the HLA partner in the T2 stabilization assay of the TLI analog peptides; also called T2 cells alone; HLA-A*02 molecule
# From the text: (§1) TLI peptide was substituted with alanine at position 1, 2, 3, 4, 5, 7, 8 and 9, or with glycine at position 10. Position 6 was already alanine and it was left intact.
# [2] = target: T2, A7: … on HLA-A2 of T2 cells (human, UniProt A*02:01); assay: flow cytometry; T2 cells pulsed with the peptide at 50 ug/ml, stained with Foxp3-#32 bispecific mAb
# T2 construct: on T2 cells; I7A; also called A7 analog of the Foxp3-TLI peptide/HLA-A*02:01
# From the text: as §1
# [3] = target: T3, A8: … on HLA-A2 of T2 cells (human, UniProt A*02:01); assay: as above
# T3 construct: on T2 cells; L8A; also called A8 analog of the Foxp3-TLI peptide/HLA-A*02:01
# From the text: as §1
# [4] = target: T4, G10: … on HLA-A2 of T2 cells (human, UniProt A*02:01); assay: as above
# T4 construct: on T2 cells; A10G; also called G10 analog of the Foxp3-TLI peptide/HLA-A*02:01
# From the text: as §1
# [5] = target: T5, A4: … on HLA-A2 of T2 cells (human, UniProt A*02:01); assay: as above
# T5 construct: on T2 cells; R4A; also called A4 analog of the Foxp3-TLI peptide/HLA-A*02:01
# From the text: as §1
# [6] = target: T6, A5: … on HLA-A2 of T2 cells (human, UniProt A*02:01); assay: as above
# T6 construct: on T2 cells; W5A; also called A5 analog of the Foxp3-TLI peptide/HLA-A*02:01
# From the text: as §1
# [7] = target: T7, A2: … on HLA-A2 of T2 cells (human, UniProt A*02:01); assay: as above
# T7 construct: on T2 cells; L2A; also called A2 analog of the Foxp3-TLI peptide/HLA-A*02:01
# From the text: as §1
# [8] = target: T8, A9: … on HLA-A2 of T2 cells (human, UniProt A*02:01); assay: as above
# T8 construct: on T2 cells; E9A; also called A9 analog of the Foxp3-TLI peptide/HLA-A*02:01
# From the text: as §1
# [9] = target: T9, A1: … on HLA-A2 of T2 cells (human, UniProt A*02:01); assay: as above
# T9 construct: on T2 cells; T1A; also called A1 analog of the Foxp3-TLI peptide/HLA-A*02:01
# From the text: as §1
# [10] = target: T10, A3: … on HLA-A2 of T2 cells (human, UniProt A*02:01); assay: as above
# T10 construct: on T2 cells; I3A; also called A3 analog of the Foxp3-TLI peptide/HLA-A*02:01
# From the text: as §1
# [11] = target: T11, CD3 on the Jurkat T cell line (human, UniProt P07766 23-207); assay: flow cytometry on Jurkat cells (HLA-A2 negative)
# T11 construct: whole, on cells; The result sentence says only 'CD3'; the epsilon chain comes from the description of the construct; also called human CD3 epsilon
# T11 sequence (P07766 23-207): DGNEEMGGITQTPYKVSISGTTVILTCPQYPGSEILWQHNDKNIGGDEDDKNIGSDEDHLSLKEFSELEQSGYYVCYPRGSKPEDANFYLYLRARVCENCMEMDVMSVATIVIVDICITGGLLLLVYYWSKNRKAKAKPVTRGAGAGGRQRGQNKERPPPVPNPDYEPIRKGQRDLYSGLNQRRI
# Method: Binding of the indicated bispecific mAb constructs to Foxp3+/HLA-A2+T lymphoma cell line MAC-2A and control cell line Jurkat. Since the bispecific mAb constructs were myc-tagged, the binding was tested by staining the cells with the bispecific mAbs, followed by a secondary mAb, mouse anti-myc conjugated to FITC. […] Binding strength is shown by median fluorescent intensity.
Binder,binding result [1],Median:PE-A [2],Median:PE-A [3],Median:PE-A [4],Median:PE-A [5],Median:PE-A [6],Median:PE-A [7],Median:PE-A [8],Median:PE-A [9],Median:PE-A [10],binding result [11]
"Foxp3-#32 bispecific mAb (bispecific antibody, Bispecific T cell engager format, made in CHO cells and purified through its His tag; also called FoxP3-#32 BsAb; Foxp3-bispecific mAb) QSVLTQPPSVSVAPGKTARITCGGNNIGSKSVHWYQQKPGQAPVLVIYYDSDRPSGIPERFSGSNSGNTATLTISRVEAGDEADYYCQVWDSSSDHYVFGTGTKVTVLGSRGGGGSGGGGSGGGGSLEMAEVQLVESGGGVVQPGRSLRLSCAASGFTFNNHAMHWVRQAPGKGLEWVAVISFDGDDKFYADSVKGRFTISRDNSRNTLFLQMNNLRPEDTAVYYCSRDPYHFASGSYSYFDYWGQGTLVTVSSTSGGGGSDVQLVQSGAEVKKPGASVKVSCKASGYTFTRYTMHWVRQAPGQGLEWIGYINPSRGYTNYADSVKGRFTITTDKSTSTAYMELSSLRSEDTATYYCARYYDDHYCLDYWGQGTTVTVSSGEGTSTGSGGSGGSGGADDIVLTQSPATLSLSPGERATLSCRASQSVSYMNWYQQKPGKAPKRWIYDTSKVASGVPARFSGSGSGTDYSLTINSLEAEDAATYYCQQWSSNPLTFGGGTKVEIKHHHHHH",no binding,3470,122,214,4450,861,603,117,5620,5510,–
"Foxp3-#32 mAb, mouse IgG1 form (antibody, V domains shown, APC-conjugated in some stainings; the letters do not carry the dye., Mouse IgG1 form of the TCR-mimic antibody, used for flow cytometry and APC-conjugated in some stainings; Where the text says only 'Foxp3-#32 mAb' in the Treg and cell line stainings, the methods and legends name the mouse IgG1 form; also called mAb Foxp3-#32; mAb-Foxp3-#32) VH: EVQLVESGGGVVQPGRSLRLSCAASGFTFNNHAMHWVRQAPGKGLEWVAVISFDGDDKFYADSVKGRFTISRDNSRNTLFLQMNNLRPEDTAVYYCSRDPYHFASGSYSYFDYWGQGTLVTVSS VL: QSVLTQPPSVSVAPGKTARITCGGNNIGSKSVHWYQQKPGQAPVLVIYYDSDRPSGIPERFSGSNSGNTATLTISRVEAGDEADYYCQVWDSSSDHYVFGTGTKVTVL",–,–,–,–,–,–,–,–,–,–,no binding (tested: 1 ug/ml)
